# Measurements published in article PMC11417181.
# Tests used:
# C3b C3b (Homo sapiens) = C3b C3b (Homo sapiens) (UniProt P01024); settings: cited from earlier work
# [1] = target: SCR-17/18H deglycosylated with PNGase F (human); test: AUC; sedimentation velocity of the SCR fragments, 20 °C, 50,000 rpm, Hepes buffer (10 mM Hepes, 137 mM NaCl, pH 7.4), c(s) analysis in SEDFIT, proportions of monomer and dimer from peak integration; monomer to dimer
# Chain of C3b C3b (Homo sapiens) (P01024 566-670): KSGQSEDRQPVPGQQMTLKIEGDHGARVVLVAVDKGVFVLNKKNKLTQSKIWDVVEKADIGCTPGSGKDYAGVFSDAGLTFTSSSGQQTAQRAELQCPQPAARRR
# Chain of Complement factor H (P08603 19-1231): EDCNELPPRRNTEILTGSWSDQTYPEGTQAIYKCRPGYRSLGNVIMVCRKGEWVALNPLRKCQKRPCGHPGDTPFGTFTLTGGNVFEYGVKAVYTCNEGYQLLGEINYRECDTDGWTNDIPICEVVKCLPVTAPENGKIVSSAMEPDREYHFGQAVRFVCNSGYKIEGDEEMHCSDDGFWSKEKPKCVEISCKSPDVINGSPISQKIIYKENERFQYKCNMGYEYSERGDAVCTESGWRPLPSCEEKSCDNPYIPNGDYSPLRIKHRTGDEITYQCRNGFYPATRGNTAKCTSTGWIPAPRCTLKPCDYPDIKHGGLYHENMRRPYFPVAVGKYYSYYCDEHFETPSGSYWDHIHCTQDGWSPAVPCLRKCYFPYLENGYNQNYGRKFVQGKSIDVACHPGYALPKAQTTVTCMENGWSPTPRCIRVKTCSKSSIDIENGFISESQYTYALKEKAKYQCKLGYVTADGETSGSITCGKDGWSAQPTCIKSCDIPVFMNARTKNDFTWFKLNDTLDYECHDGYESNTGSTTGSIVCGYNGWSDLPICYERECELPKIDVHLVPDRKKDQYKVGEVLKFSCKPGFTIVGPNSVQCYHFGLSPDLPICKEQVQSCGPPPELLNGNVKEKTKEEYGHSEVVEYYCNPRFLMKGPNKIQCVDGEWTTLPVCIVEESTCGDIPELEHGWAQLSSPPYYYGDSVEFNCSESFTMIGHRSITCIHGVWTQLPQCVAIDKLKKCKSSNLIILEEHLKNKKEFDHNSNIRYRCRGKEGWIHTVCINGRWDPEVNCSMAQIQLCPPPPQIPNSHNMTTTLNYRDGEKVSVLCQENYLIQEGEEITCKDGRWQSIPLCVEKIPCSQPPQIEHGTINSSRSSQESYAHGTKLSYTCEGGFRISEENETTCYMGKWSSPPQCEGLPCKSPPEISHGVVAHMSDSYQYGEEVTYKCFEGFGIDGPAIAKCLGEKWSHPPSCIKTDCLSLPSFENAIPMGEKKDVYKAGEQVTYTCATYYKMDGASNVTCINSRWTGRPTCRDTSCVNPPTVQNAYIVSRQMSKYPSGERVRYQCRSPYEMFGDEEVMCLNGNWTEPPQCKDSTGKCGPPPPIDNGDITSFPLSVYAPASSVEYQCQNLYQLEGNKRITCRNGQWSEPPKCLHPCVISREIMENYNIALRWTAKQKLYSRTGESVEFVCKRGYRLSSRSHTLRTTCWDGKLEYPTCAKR
Substance,Kd (C3b C3b (Homo sapiens)) [nM],proportion of dimer [1] [%],stoichiometry N [1]
Complement factor H (from UniProt P08603),1060,,
SCR-17/18H deglycosylated with PNGase F (domain or fragment),,16,2
